B1: SPRY domain-containing SOCS box protein 2 (Mus musculus), O88838 (parent)
chain: MGQTALARGSSSTPTSQALYSDFSPPEGLEELLSAPPPDLVAQRHHGWNPKDCSENIDVKEGGLCFERRPVAQSTDGVRGKRGYSRGLHAWEISWPLEQRGTHAVVGVATALAPLQADHYAALLGSNSESWGWDIGRGKLYHQSKGLEAPQYPAGPQGEQLVVPERLLVVLDMEEGTLGYSIGGTYLGPAFRGLKGRTLYPSVSAVWGQCQVRIRYMGERRVEEPQSLLHLSRLCVRHALGDTRLGQISTLPLPPAMKRYLLYK
partner: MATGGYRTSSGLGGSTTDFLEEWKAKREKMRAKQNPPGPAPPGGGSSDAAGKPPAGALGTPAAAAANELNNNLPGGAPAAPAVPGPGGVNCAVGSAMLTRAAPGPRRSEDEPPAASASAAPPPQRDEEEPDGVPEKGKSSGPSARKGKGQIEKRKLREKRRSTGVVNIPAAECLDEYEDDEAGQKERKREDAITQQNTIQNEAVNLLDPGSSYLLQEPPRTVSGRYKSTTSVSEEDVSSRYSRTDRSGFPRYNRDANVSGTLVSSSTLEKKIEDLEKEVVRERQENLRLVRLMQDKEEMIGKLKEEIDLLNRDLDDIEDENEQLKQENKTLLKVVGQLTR

Variants of: B1
Conditions: with pawr_human PAWR

Variant	effect of a mutation on the interaction
L123A;L124A;G125A	disrupting interaction strength
Y141A;H142A;Q143A	disrupting interaction strength
Q151A;Y152A	disrupting interaction strength
Y120A	disrupting interaction
G188A;P189A	disrupting interaction strength
V206A	disrupting interaction
